We go through 4 molecules from patent US20120142593A1 (Bayer, published 2012).

In general, Kd refers to the constant that tells how readily two partners part at equilibrium.

Experiment [1] deals with human von Willebrand Factor (human) (UniProt P04275). Put plainly: Biacore SPR, human vWF immobilized on a CM-5 chip by amine coupling, full-length recombinant FVIII passed over as analyte. Background: SPR reads the build-up and loss of mass on a sensor chip optically.
A further experiment concerns the target T1, recombinant mouse FcRn (mouse, UniProt Q61559 22-297; P01887 21-119, limits assumed).
T1 construct: also called mFcRn
T1 sequence (looked up) 1: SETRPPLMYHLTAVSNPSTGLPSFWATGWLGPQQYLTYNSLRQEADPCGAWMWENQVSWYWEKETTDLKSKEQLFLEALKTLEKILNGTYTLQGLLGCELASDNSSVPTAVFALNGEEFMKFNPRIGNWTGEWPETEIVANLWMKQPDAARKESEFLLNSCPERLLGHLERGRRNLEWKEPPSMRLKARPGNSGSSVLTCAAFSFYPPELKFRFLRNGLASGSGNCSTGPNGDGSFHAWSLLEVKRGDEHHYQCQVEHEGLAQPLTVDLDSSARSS
T1 sequence (looked up) 2: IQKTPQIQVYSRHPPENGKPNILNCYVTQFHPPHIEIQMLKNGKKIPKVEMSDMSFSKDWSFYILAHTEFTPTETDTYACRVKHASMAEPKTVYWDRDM
Description: Biacore, mFcRn immobilized on CM-5 chip. The source says:
The following example describes functional studies performed using the Biacore™ system to determine whether an FcRn binding epitope retains it ability to bind to FnRn when incorporated in a Factor VIII fusion heterodimer. For use in the Biacore™ test, recombinant mouse FcRn (mFcRn) protein was expressed in CHO-K1 cells and purified by mouse IgG-affinity chromatography. Mouse FcRn was immobilized onto a CM-5 chip by amine coupling. Two Factor VIII heterodimers (BDDFc+hinge and BDDFc−hinge), BDD (the Factor VIII protein from which BDDFc+hinge and BDDFc−hinge are derived), and full-length recombinant Factor VIII were passed over the surface of the chip at various concentrations (e.g., 1.5, 3, 6, 12, 25, and 50 nM). Binding of BDDFc±hinge Factor VIII fusion heterodimers to immobilized mFcRn was detected (FIG. 13).

The target of experiment [2] is T2, human von Willebrand Factor (human, UniProt P04275 764-2813).
T2 construct: also called vWF; vWf
Put plainly: Biacore, human vWF immobilized on CM-5 chip. The protocol:
(§1) Human vWF was immobilized onto a CM-5 chip by amine coupling. Two Factor VIII heterodimers (BDDFc+hinge and BDDFc−hinge), BDD (the Factor VIII protein from which BDDFc+hinge and BDDFc−hinge are derived), and full-length recombinant Factor VIII were passed over the surface of the chip at various concentrations (e.g., 1, 2, 4, 8, 16, and 25 nM).

Experiment [3] has as its target T2, human von Willebrand Factor. Put plainly: Biacore SPR, human vWF immobilized on a CM-5 chip by amine coupling, BDD passed over as analyte. On the procedure: as §1

Turning to “full-length recombinant Factor VIII (from UniProt P00451 20-2351)”, the Kd in experiment [1] is 0.657 nM.

B1: BDDFc-hinge Factor VIII fusion heterodimer (Fc fusion)
chain: ATRRYYLGAVELSWDYMQSDLGELPVDARFPPRVPKSFPFNTSVVYKKTLFVEFTDHLFNIAKPRPPWMGLLGPTIQAEVYDTVVITLKNMASHPVSLHAVGVSYWKASEGAEYDDQTSQREKEDDKVFPGGSHTYVWQVLKENGPMASDPLCLTYSYLSHVDLVKDLNSGLIGALLVCREGSLAKEKTQTLHKFILLFAVFDEGKSWHSETKNSLMQDRDAASARAWPKMHTVNGYVNRSLPGLIGCHRKSVYWHVIGMGTTPEVHSIFLEGHTFLVRNHRQASLEISPITFLTAQTLLMDLGQFLLFCHISSHQHDGMEAYVKVDSCPEEPQLRMKNNEEAEDYDDDLTDSEMDVVRFDDDNSPSFIQIRSVAKKHPKTWVHYIAAEEEDWDYAPLVLAPDDRSYKSQYLNNGPQRIGRKYKKVRFMAYTDETFKTREAIQHESGILGPLLYGEVGDTLLIIFKNQASRPYNIYPHGITDVRPLYSRRLPKGVKHLKDFPILPGEIFKYKWTVTVEDGPTKSDPRCLTRYYSSFVNMERDLASGLIGPLLICYKESVDQRGNQIMSDKRNVILFSVFDENRSWYLTENIQRFLPNPAGVQLEDPEFQASNIMHSINGYVFDSLQLSVCLHEVAYWYILSIGAQTDFLSVFFSGYTFKHKMVYEDTLTLFPFSGETVFMSMENPGLWILGCHNSDFRNRGMTALLKVSSCDKNTGDYYEDSYEDISAYLLSKNNAIEPRSFSQNVPEVSSVFIFPPKPKDVLTITLTPKVTCVVVDISKDDPEVQFSWFVDDVEVHTAQTQPREEQFNSTFRSVSELPIMHQDWLNGKEFKCRVNSAAFPAPIEKTISKTKGRPKAPQVYTIPPPKEQMAKDKVSLTCMITDFFPEDITVEWQWNGQPAENYKNTQPIMDTDGSYFVYSKLNVQKSNWEAGNTFTCSVLHEGLHNHHTEKSLSHSPGKSQNPPVLKRHQREITRTTLQSDQEEIDYDDTISVEMKKEDFDIYDEDENQSPRSFQKKTRHYFIAAVERLWDYGMSSSPHVLRNRAQSGSVPQFKKVVFQEFTDGSFTQPLYRGELNEHLGLLGPYIRAEVEDNIMVTFRNQASRPYSFYSSLISYEEDQRQGAEPRKNFVKPNETKTYFWKVQHHMAPTKDEFDCKAWAYFSDVDLEKDVHSGLIGPLLVCHTNTLNPAHGRQVTVQEFALFFTIFDETKSWYFTENMERNCRAPCNIQMEDPTFKENYRFHAINGYIMDTLPGLVMAQDQRIRWYLLSMGSNENIHSIHFSGHVFTVRKKEEYKMALYNLYPGVFETVEMLPSKAGIWRVECLIGEHLHAGMSTLFLVYSNKCQTPLGMASGHIRDFQITASGQYGQWAPKLARLHYSGSINAWSTKEPFSWIKVDLLAPMIIHGIKTQGARQKFSSLYISQFIIMYSLDGKKWQTYRGNSTGTLMVFFGNVDSSGIKHNIFNPPIIARYIRLHPTHYSIRSTLRMELMGCDLNSCSMPLGMESKAISDAQITASSYFTNMFATWSPSKARLHLQGRSNAWRPQVNNPKEWLQVDFQKTMKVTGVTTQGVKSLLTSMYVKEFLISSSQDGHQWTLFFQNGKVKVFQGNQDSFTPVVNSLDPPLLTRYLRIHPQSWVHQIALRMEVLGCEAQDLY
notes: No signal peptide limits are stated on this entry; It is processed into a heavy chain-Fc chimera and a light chain; also called BDDmFc-hinge expression product; FVIII-Fc
Regarding B1, the values for the Kd (with recombinant mouse FcRn; in experiment [2]) were 3.75 nM and 0.908 nM, respectively.

B2: B-domain deleted Factor VIII (BDD) (other)
chain: ATRRYYLGAVELSWDYMQSDLGELPVDARFPPRVPKSFPFNTSVVYKKTLFVEFTVHLFNIAKPRPPWMGLLGPTIQAEVYDTVVITLKNMASHPVSLHAVGVSYWKASEGAEYDDQTSQREKEDDKVFPGGSHTYVWQVLKENGPMASDPLCLTYSYLSHVDLVKDLNSGLIGALLVCREGSLAKEKTQTLHKFILLFAVFDEGKSWHSETKNSLMQDRDAASARAWPKMHTVNGYVNRSLPGLIGCHRKSVYWHVIGMGTTPEVHSIFLEGHTFLVRNHRQASLEISPITFLTAQTLLMDLGQFLLFCHISSHQHDGMEAYVKVDSCPEEPQLRMKNNEEAEDYDDDLTDSEMDVVRFDDDNSPSFIQIRSVAKKHPKTWVHYIAAEEEDWDYAPLVLAPDDRSYKSQYLNNGPQRIGRKYKKVRFMAYTDETFKTREAIQHESGILGPLLYGEVGDTLLIIFKNQASRPYNIYPHGITDVRPLYSRRLPKGVKHLKDFPILPGEIFKYKWTVTVEDGPTKSDPRCLTRYYSSFVNMERDLASGLIGPLLICYKESVDQRGNQIMSDKRNVILFSVFDENRSWYLTENIQRFLPNPAGVQLEDPEFQASNIMHSINGYVFDSLQLSVCLHEVAYWYILSIGAQTDFLSVFFSGYTFKHKMVYEDTLTLFPFSGETVFMSMENPGLWILGCHNSDFRNRGMTALLKVSSCDKNTGDYYEDSYEDISAYLLSKNNAIEPRSFSQNPPVLKRHQREITRTTLQSDQEEIDYDDTISVEMKKEDFDIYDEDENQSPRSFQKKTRHYFIAAVERLWDYGMSSSPHVLRNRAQSGSVPQFKKVVFQEFTDGSFTQPLYRGELNEHLGLLGPYIRAEVEDNIMVTFRNQASRPYSFYSSLISYEEDQRQGAEPRKNFVKPNETKTYFWKVQHHMAPTKDEFDCKAWAYFSDVDLEKDVHSGLIGPLLVCHTNTLNPAHGRQVTVQEFALFFTIFDETKSWYFTENMERNCRAPCNIQMEDPTFKENYRFHAINGYIMDTLPGLVMAQDQRIRWYLLSMGSNENIHSIHFSGHVFTVRKKEEYKMALYNLYPGVFETVEMLPSKAGIWRVECLIGEHLHAGMSTLFLVYSNKCQTPLGMASGHIRDFQITASGQYGQWAPKLARLHYSGSINAWSTKEPFSWIKVDLLAPMIIHGIKTQGARQKFSSLYISQFIIMYSLDGKKWQTYRGNSTGTLMVFFGNVDSSGIKHNIFNPPIIARYIRLHPTHYSIRSTLRMELMGCDLNSCSMPLGMESKAISDAQITASSYFTNMFATWSPSKARLHLQGRSNAWRPQVNNPKEWLQVDFQKTMKVTGVTTQGVKSLLTSMYVKEFLISSSQDGHQWTLFFQNGKVKVFQGNQDSFTPVVNSLDPPLLTRYLRIHPQSWVHQIALRMEVLGCEAQDLY
notes: The protein circulates as a heavy chain and light chain heterodimer; also called BDD-FVIII; BDD Factor VIII
In experiment [3], B2 returned a Kd of 0.53 nM.

B3: BDDFc+hinge Factor VIII fusion heterodimer (Fc fusion)
chain: ATRRYYLGAVELSWDYMQSDLGELPVDARFPPRVPKSFPFNTSVVYKKTLFVEFTDHLFNIAKPRPPWMGLLGPTIQAEVYDTVVITLKNMASHPVSLHAVGVSYWKASEGAEYDDQTSQREKEDDKVFPGGSHTYVWQVLKENGPMASDPLCLTYSYLSHVDLVKDLNSGLIGALLVCREGSLAKEKTQTLHKFILLFAVFDEGKSWHSETKNSLMQDRDAASARAWPKMHTVNGYVNRSLPGLIGCHRKSVYWHVIGMGTTPEVHSIFLEGHTFLVRNHRQASLEISPITFLTAQTLLMDLGQFLLFCHISSHQHDGMEAYVKVDSCPEEPQLRMKNNEEAEDYDDDLTDSEMDVVRFDDDNSPSFIQIRSVAKKHPKTWVHYIAAEEEDWDYAPLVLAPDDRSYKSQYLNNGPQRIGRKYKKVRFMAYTDETFKTREAIQHESGILGPLLYGEVGDTLLIIFKNQASRPYNIYPHGITDVRPLYSRRLPKGVKHLKDFPILPGEIFKYKWTVTVEDGPTKSDPRCLTRYYSSFVNMERDLASGLIGPLLICYKESVDQRGNQIMSDKRNVILFSVFDENRSWYLTENIQRFLPNPAGVQLEDPEFQASNIMHSINGYVFDSLQLSVCLHEVAYWYILSIGAQTDFLSVFFSGYTFKHKMVYEDTLTLFPFSGETVFMSMENPGLWILGCHNSDFRNRGMTALLKVSSCDKNTGDYYEDSYEDISAYLLSKNNAIEPRSFSQNVPRDCGCKPCICTVPEVSSVFIFPPKPKDVLTITLTPKVTCVVVDISKDDPEVQFSWFVDDVEVHTAQTQPREEQFNSTFRSVSELPIMHQDWLNGKEFKCRVNSAAFPAPIEKTISKTKGRPKAPQVYTIPPPKEQMAKDKVSLTCMITDFFPEDITVEWQWNGQPAENYKNTQPIMDTDGSYFVYSKLNVQKSNWEAGNTFTCSVLHEGLHNHHTEKSLSHSPGKSQNPPVLKRHQREITRTTLQSDQEEIDYDDTISVEMKKEDFDIYDEDENQSPRSFQKKTRHYFIAAVERLWDYGMSSSPHVLRNRAQSGSVPQFKKVVFQEFTDGSFTQPLYRGELNEHLGLLGPYIRAEVEDNIMVTFRNQASRPYSFYSSLISYEEDQRQGAEPRKNFVKPNETKTYFWKVQHHMAPTKDEFDCKAWAYFSDVDLEKDVHSGLIGPLLVCHTNTLNPAHGRQVTVQEFALFFTIFDETKSWYFTENMERNCRAPCNIQMEDPTFKENYRFHAINGYIMDTLPGLVMAQDQRIRWYLLSMGSNENIHSIHFSGHVFTVRKKEEYKMALYNLYPGVFETVEMLPSKAGIWRVECLIGEHLHAGMSTLFLVYSNKCQTPLGMASGHIRDFQITASGQYGQWAPKLARLHYSGSINAWSTKEPFSWIKVDLLAPMIIHGIKTQGARQKFSSLYISQFIIMYSLDGKKWQTYRGNSTGTLMVFFGNVDSSGIKHNIFNPPIIARYIRLHPTHYSIRSTLRMELMGCDLNSCSMPLGMESKAISDAQITASSYFTNMFATWSPSKARLHLQGRSNAWRPQVNNPKEWLQVDFQKTMKVTGVTTQGVKSLLTSMYVKEFLISSSQDGHQWTLFFQNGKVKVFQGNQDSFTPVVNSLDPPLLTRYLRIHPQSWVHQIALRMEVLGCEAQDLY
notes: also called BDDmFc+hinge expression product
Take B3: the figures for the Kd (with recombinant mouse FcRn; in experiment [2]) were 2.48 nM and 0.465 nM, respectively.
